{"source": "paper doi:10.1101/2024.07.02.601760", "about": "“Multi-dimensional demarcation of phylogenetic groups of plant 14-3-3 isoforms using biochemical signatures” (bioRxiv, 2024)", "proteins": {"B1": {"name": "Arabidopsis thaliana 14-3-3 omicron (natural protein, UniProt Q9S9Z8 1-252, looked up)", "chain": "MENERAKQVYLAKLNEQAERYDEMVEAMKKVAALDVELTIEERNLLSVGYKNVIGARRASWRILSSIEQKEESKGNEQNAKRIKDYRTKVEEELSKICYDILAVIDKHLVPFATSGESTVFYYKMKGDYFRYLAEFKSGADREEAADLSLKAYEAATSSASTELSTTHPIRLGLALNFSVFYYEILNSPERACHLAKRAFDEAIAELDSLNEDSYKDSTLIMQLLRDNLTLWTSDLEEGGEQSKGHNQQDEN", "notes": "14-3-3 omicron, Arabidopsis thaliana, epsilon group; construct provided by Prof; Robert J. Ferl; source: E. coli C41(DE3), purified (IMAC, thrombin cleavage of the His6-tag, subtractive IMAC, preparative SEC; aliquots before preparative SEC for SEC-MALS)"}}, "target": "the molecule itself", "test": "SEC-MALS; Superdex 200 Increase 10/300, 0.8 ml/min; 65 µl of ~3 mg/ml or 100 μM per monomer loaded; 20 mM Tris-HCl pH 7.5, 150 mM NaCl, 5 mM βME, 3 mM NaN3; samples before preparative SEC; self-association, monomers to dimer (small tetramer peak for six isoforms)", "data": [{"protein": "B1", "values": [{"measurement": "stoichiometry N", "result": 2}]}]}
